# Reference: article PMC4675670
# B1: human EPRS (bifunctional glutamyl-prolyl-tRNA synthetase) (Homo sapiens) (protein)
# chain: MATLSLTVNSGDPPLGALLAVEHVKDDVSISVEEGKENILHVSENVIFTDVNSILRYLARVATTAGLYGSNLMEHTEIDHWLEFSATKLSSCDSFTSTINELNHCLSLRTYLVGNSLSLADLCVWATLKGNAAWQEQLKQKKAPVHVKRWFGFLEAQQAFQSVGTKWDVSTTKARVAPEKKQDVGKFVELPGAEMGKVTVRFPPEASGYLHIGHAKAALLNQHYQVNFKGKLIMRFDDTNPEKEKEDFEKVILEDVAMLHIKPDQFTYTSDHFETIMKYAEKLIQEGKAYVDDTPAEQMKAEREQRIDSKHRKNPIEKNLQMWEEMKKGSQFGQSCCLRAKIDMSSNNGCMRDPTLYRCKIQPHPRTGNKYNVYPTYDFACPIVDSIEGVTHALRTTEYHDRDEQFYWIIEALGIRKPYIWEYSRLNLNNTVLSKRKLTWFVNEGLVDGWDDPRFPTVRGVLRRGMTVEGLKQFIAAQGSSRSVVNMEWDKIWAFNKKVIDPVAPRYVALLKKEVIPVNVPEAQEEMKEVAKHPKNPEVGLKPVWYSPKVFIEGADAETFSEGEMVTFINWGNLNITKIHKNADGKIISLDAKLNLENKDYKKTTKVTWLAETTHALPIPVICVTYEHLITKPVLGKDEDFKQYVNKNSKHEELMLGDPCLKDLKKGDIIQLQRRGFFICDQPYEPVSPYSCKEAPCVLIYIPDGHTKEMPTSGSKEKTKVEATKNETSAPFKERPTPSLNNNCTTSEDSLVLYNRVAVQGDVVRELKAKKAPKEDVDAAVKQLLSLKAEYKEKTGQEYKPGNPPAEIGQNISSNSSASILESKSLYDEVAAQGEVVRKLKAEKSPKAKINEAVECLLSLKAQYKEKTGKEYIPGQPPLSQSSDSSPTRNSEPAGLETPEAKVLFDKVASQGEVVRKLKTEKAPKDQVDIAVQELLQLKAQYKSLIGVEYKPVSATGAEDKDKKKKEKENKSEKQNKPQKQNDGQRKDPSKNQGGGLSSSGAGEGQGPKKQTRLGLEAKKEENLADWYSQVITKSEMIEYHDISGCYILRPWAYAIWEAIKDFFDAEIKKLGVENCYFPMFVSQSALEKEKTHVADFAPEVAWVTRSGKTELAEPIAIRPTSETVMYPAYAKWVQSHRDLPIKLNQWCNVVRWEFKHPQPFLRTREFLWQEGHSAFATMEEAAEEVLQILDLYAQVYEELLAIPVVKGRKTEKEKFAGGDYTTTIEAFISASGRAIQGGTSHHLGQNFSKMFEIVFEDPKIPGEKQFAYQNSWGLTTRTIGVMTMVHGDNMGLVLPPRVACVQVVIIPCGITNALSEEDKEALIAKCNDYRRRLLSVNIRVRADLRDNYSPGWKFNHWELKGVPIRLEVGPRDMKSCQFVAVRRDTGEKLTVAENEAETKLQAILEDIQVTLFTRASEDLKTHMVVANTMEDFQKILDSGKIVQIPFCGEIDCEDWIKKTTARDQDLEPGAPSMGAKSLCIPFKPLCELQPGAKCVCGKNPAKYYTLFGRSY
# Substrate: O=C(O)[C@@H]1CCCN1
# Assay: enzyme kinetics, Km
# Type: biochemical, Homo sapiens
protein,measurement,value
B1,Km,135.4 µM
